B1: S100A14 (parent)
chain: KIANLGSCNDSKLEFRSFWELIGE
B2: EMD (parent)
chain: YQSKGYNDDYYEESYFTTRTYGEP
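Further: lentivirally expressed fusions sorted by FACS into six bins by GFP to DsRed ratio, PSI derived from sequencing read proportions per bin multiplied by bin number.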

Variants of: B1
Experiment: protein stability index of a GFP-peptide fusion (GPS, HEK-293T) (PSI 1-6); higher = more stable
Details: c terminus: a fixed tail appended
Work on KTANLGSCNDSKLEFRSFWELIGE [I2T] yielded a protein stability index of 2. With KPANLGSCNDSKLEFRSFWELIGE [I2P] the protein stability index was 2.12. For KHANLGSCNDSKLEFRSFWELIGE [I2H], the protein stability index was 2.31. KFANLGSCNDSKLEFRSFWELIGE [I2F] showed a protein stability index of 1.55. KNANLGSCNDSKLEFRSFWELIGE [I2N] gave a protein stability index of 1.6. With KMANLGSCNDSKLEFRSFWELIGE [I2M] the protein stability index was 1.99. KWANLGSCNDSKLEFRSFWELIGE [I2W] showed a protein stability index of 1.88. With KVANLGSCNDSKLEFRSFWELIGE [I2V] the protein stability index was 1.88. With KSANLGSCNDSKLEFRSFWELIGE [I2S] the protein stability index was 2.9. For KAANLGSCNDSKLEFRSFWELIGE [I2A], the protein stability index was 1.77. KEANLGSCNDSKLEFRSFWELIGE [I2E] gave a protein stability index of 1.77. With KQANLGSCNDSKLEFRSFWELIGE [I2Q] the protein stability index was 1.32. KRANLGSCNDSKLEFRSFWELIGE [I2R] showed a protein stability index of 2.13. For KLANLGSCNDSKLEFRSFWELIGE [I2L], the protein stability index was 1.8. With KKANLGSCNDSKLEFRSFWELIGE [I2K] the protein stability index was 1.54. KCANLGSCNDSKLEFRSFWELIGE [I2C] showed a protein stability index of 1.22. Work on KDANLGSCNDSKLEFRSFWELIGE [I2D] yielded a protein stability index of 1.61. For KYANLGSCNDSKLEFRSFWELIGE [I2Y], the protein stability index was 1.57. With KGANLGSCNDSKLEFRSFWELIGE [I2G] the protein stability index was 2.

Variants of: B2
Experiment: as above
Details: c terminus: a fixed tail appended
For YQSKGYNDDYYEESYFTTRTMGEP [Y21M], the protein stability index was 2.97. Variant YQSKGYNDDYYEESYFTTRTSGEP [Y21S] has a protein stability index of 2.77. YQSKGYNDDYYEESYFTTRTFGEP [Y21F] showed a protein stability index of 2.02. FQSKGYNDDYYEESYFTTRTYGEP [Y1F] showed a protein stability index of 1.97. Variant EQSKGYNDDYYEESYFTTRTYGEP [Y1E] has a protein stability index of 4.2. TQSKGYNDDYYEESYFTTRTYGEP [Y1T] showed a protein stability index of 3.7. In the case of RQSKGYNDDYYEESYFTTRTYGEP [Y1R], the protein stability index is reported as 3.48. Work on YQSKGYTDDYYEESYFTTRTYGEP [N7T] yielded a protein stability index of 2.14. With YQSKGYIDDYYEESYFTTRTYGEP [N7I] the protein stability index was 1.76. With YQSKGYNDDYYEESYFTTRVYGEP [T20V] the protein stability index was 2.1. YQSKGYNDDYYEESYFTTRMYGEP [T20M] gave a protein stability index of 2.29. Variant YQSKGYNDDYYEESYFTVRTYGEP [T18V] has a protein stability index of 1.95. For YQSKGYNDDYYEESYFTNRTYGEP [T18N], the protein stability index was 2.5. YQSKGYNDDYYEESYFTHRTYGEP [T18H] gave a protein stability index of 2.17. With YQSKGYNDDYYEESYFTKRTYGEP [T18K] the protein stability index was 2.65. With YQSKGYNDDYYEESYFTARTYGEP [T18A] the protein stability index was 2.31. With YQSKGYNDDYYEYSYFTTRTYGEP [E13Y] the protein stability index was 1.91. YQSKGYNDDYYEWSYFTTRTYGEP [E13W] showed a protein stability index of 1.83. YQSKGYNDDYYERSYFTTRTYGEP [E13R] gave a protein stability index of 1.82. Variant YQFKGYNDDYYEESYFTTRTYGEP [S3F] has a protein stability index of 2.25. In the case of YQQKGYNDDYYEESYFTTRTYGEP [S3Q], the protein stability index is reported as 2.43. Work on YQLKGYNDDYYEESYFTTRTYGEP [S3L] yielded a protein stability index of 2.17. For YQSKGYNDDYYEEQYFTTRTYGEP [S14Q], the protein stability index was 2.34. In the case of YQSKGYNDDYYEELYFTTRTYGEP [S14L], the protein stability index is reported as 2.08. Variant YQSKGYNDDYYEESYFTTRTYGKP [E23K] has a protein stability index of 2.09. YQSKGYNDDYYEESYFTTRTYGIP [E23I] gave a protein stability index of 1.92. YQSKGYNDDYYEESYFTTRTYGFP [E23F] showed a protein stability index of 1.51. YQSKGYNDDYYEESYFTTRTYGAP [E23A] showed a protein stability index of 1.7. With YQSKGYNDDYYEESYFTTRTYGQP [E23Q] the protein stability index was 1.94. Work on YQSKGYNDDWYEESYFTTRTYGEP [Y10W] yielded a protein stability index of 2.38. YQSKGYNDDAYEESYFTTRTYGEP [Y10A] gave a protein stability index of 2.2. For YSSKGYNDDYYEESYFTTRTYGEP [Q2S], the protein stability index was 2.65. For YCSKGYNDDYYEESYFTTRTYGEP [Q2C], the protein stability index was 2.12. YPSKGYNDDYYEESYFTTRTYGEP [Q2P] gave a protein stability index of 2.29. YGSKGYNDDYYEESYFTTRTYGEP [Q2G] showed a protein stability index of 2.53. YWSKGYNDDYYEESYFTTRTYGEP [Q2W] showed a protein stability index of 1.59. YQSKGYNEDYYEESYFTTRTYGEP [D8E] showed a protein stability index of 2.13. YQSKGYNGDYYEESYFTTRTYGEP [D8G] showed a protein stability index of 1.65. YQSKGYNSDYYEESYFTTRTYGEP [D8S] showed a protein stability index of 1.92. YQSKGYNDLYYEESYFTTRTYGEP [D9L] gave a protein stability index of 2.01. For YQSKGYNDIYYEESYFTTRTYGEP [D9I], the protein stability index was 1.57. YQSKGYNDDYYEESYFTTRTYKEP [G22K] showed a protein stability index of 2.85. YQSKGYNDDYYEESYFTTRTYYEP [G22Y] gave a protein stability index of 1.49. YQSKGYNDDYYEESYFTTRTYVEP [G22V] gave a protein stability index of 2.02. YQSKGYNDDYCEESYFTTRTYGEP [Y11C] showed a protein stability index of 2.36. With YQSKGYNDDYHEESYFTTRTYGEP [Y11H] the protein stability index was 2.6. For YQSKGYNDDYLEESYFTTRTYGEP [Y11L], the protein stability index was 2.38. With YQSKSYNDDYYEESYFTTRTYGEP [G5S] the protein stability index was 2.9. In the case of YQSKTYNDDYYEESYFTTRTYGEP [G5T], the protein stability index is reported as 2.52. For YQSKNYNDDYYEESYFTTRTYGEP [G5N], the protein stability index was 2.33. For YQSKAYNDDYYEESYFTTRTYGEP [G5A], the protein stability index was 1.93. YQSKGYNDDYYEESYFTTHTYGEP [R19H] gave a protein stability index of 2.5. YQSKGYNDDYYEESYFTTSTYGEP [R19S] showed a protein stability index of 2.53. Variant YQSKGYNDDYYEESYFTTWTYGEP [R19W] has a protein stability index of 2.03. YQSKGYNDDYYEESHFTTRTYGEP [Y15H] gave a protein stability index of 2.9. YQSKGYNDDYYEESLFTTRTYGEP [Y15L] showed a protein stability index of 2. Variant YQSKGYNDDYYEESIFTTRTYGEP [Y15I] has a protein stability index of 2.11. Work on YQSKGYNDDYYEESEFTTRTYGEP [Y15E] yielded a protein stability index of 3.41. Variant YQSKGGNDDYYEESYFTTRTYGEP [Y6G] has a protein stability index of 3.01. YQSKGSNDDYYEESYFTTRTYGEP [Y6S] gave a protein stability index of 3.77. For YQSKGYNDDYYEESYITTRTYGEP [F16I], the protein stability index was 2.95. For YQSKGYNDDYYEESYLTTRTYGEP [F16L], the protein stability index was 3.38. With YQSKGYNDDYYEESYFTTRTYGES [P24S] the protein stability index was 2.29. YQSKGYNDDYYEESYFTTRTYGET [P24T] showed a protein stability index of 1.91. YQSKGYNDDYYWESYFTTRTYGEP [E12W] gave a protein stability index of 2.19. In the case of YQSKGYNDDYYDESYFTTRTYGEP [E12D], the protein stability index is reported as 2.57. With YQSKGYNDDYYRESYFTTRTYGEP [E12R] the protein stability index was 1.73. Work on YQSKGYNDDYYYESYFTTRTYGEP [E12Y] yielded a protein stability index of 1.79. For YQSKGYNDDYYMESYFTTRTYGEP [E12M], the protein stability index was 2.26. Variant YQSKGYNDDYYSESYFTTRTYGEP [E12S] has a protein stability index of 2.33. Work on YQSKGYNDDYYAESYFTTRTYGEP [E12A] yielded a protein stability index of 2.19. Variant YQSKGYNDDYYTESYFTTRTYGEP [E12T] has a protein stability index of 2.2. Work on YQSKGYNDDYYPESYFTTRTYGEP [E12P] yielded a protein stability index of 2.12. With YQSKGYNDDYYEESYFWTRTYGEP [T17W] the protein stability index was 2.15. For YQSKGYNDDYYEESYFATRTYGEP [T17A], the protein stability index was 2.36.
